The record followed here is paper PMC8196007.

This experiment concerns the target solubilized kinase domain of B-Raf (sB-Raf), unlabeled (human) (UniProt P15056). The experiment can be described thus: native MS; LILBID-MS of the BS3-crosslinked sample and of non-crosslinked mixtures, sB-Raf:CDC-37:FKB-6:HSP-90 = 1:1:1:1 or as indicated; 25 mM Tris, 20 mM KCl, pH 7.5.

B1: nematode CDC-37 (natural protein)
chain: MPIDYSKWKDIEVSDDEDDTHPNIDTPSLFRWRHQARLERMAEKKMEQEKIDKEKGTTSKKMEELEKKLAAADVTDKSDIQKQIDEVKAQEEAWRKKEAELEEKERLEPWNVDTIGHEAFSTSRINKITEKKPQAPKTDEEDTHAMSTFFETHESLLEKMAVLKNGAKSTELFLAEHPHMASEYTANWLTIEALNAAIDFNEEKMKTMAEQCIIIQYLLELSKSLNAVATNTTVQKQFFKKFEAAEPVYMKHYQDEVKAFEDRLRTRAQTKRDAAMEEAEAEEKAERMKSAPGGIDPQEVFEQLPEEMRKCFEAHDIEALKGVAQKMDEEVFKYHFDRCIASGLWVPGKADDDDDDEEAAPAEEEPTTSS
B1: the stoichiometry N is 1.
